# Reference: the supplement of paper PMC9112550, “Optimization of the antimicrobial peptide Bac7 by deep mutational scanning” (BMC Biology, 2022)
# Test system: Escherichia coli TOP10
# Experiment: shrunken log2 fold change of peptide-encoding DNA abundance (4.5 h post-induction vs induction); higher = less antimicrobial activity (less host growth inhibition)
# Conditions: time post-induction: 4.5 h; library: site-saturation at positions 5, 18, 19, 20
# 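Note: peptides expressed intracellularly from a pBAD plasmid library in pooled LB shake-flask culture, induced with 0.3% L-arabinose, DNA abundance read by NGS, three biological replicates, DESeq2 with apeglm shrinkage.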
row,Sequence,shrunken log2 fold change
1,RRIRWRPPRLPRPRPRPEQCPRP,-0.0195
2,RRIRWRPPRLPRPRPRPETHPRP,0.756
3,RRIRWRPPRLPRPRPRPETYPRP,-0.231
4,RRIRWRPPRLPRPRPRPEYKPRP,0.472
5,RRIRWRPPRLPRPRPRPEYQPRP,0.0269
6,RRIRWRPPRLPRPRPRPFCEPRP,0.376
7,RRIRWRPPRLPRPRPRPFCTPRP,-0.137
8,RRIRWRPPRLPRPRPRPFEYPRP,-0.331
9,RRIRWRPPRLPRPRPRPFGCPRP,-0.274
10,RRIRWRPPRLPRPRPRPFGMPRP,-0.283
11,RRIRWRPPRLPRPRPRPFGPPRP,0.0591
12,RRIRWRPPRLPRPRPRPFIRPRP,0.0247
13,RRIRWRPPRLPRPRPRPFIWPRP,0.205
14,RRIRWRPPRLPRPRPRPFLCPRP,-0.139
15,RRIRWRPPRLPRPRPRPFMEPRP,-0.239
16,RRIRWRPPRLPRPRPRPFPCPRP,-0.0902
17,RRIRWRPPRLPRPRPRPFPGPRP,-0.0199
18,RRIRWRPPRLPRPRPRPFPLPRP,-0.297
19,RRIRWRPPRLPRPRPRPFPNPRP,-0.138
20,RRIRWRPPRLPRPRPRPFQPPRP,-0.0697
21,RRIRWRPPRLPRPRPRPFSRPRP,-0.0399
22,RRIRWRPPRLPRPRPRPFTSPRP,-0.0735

row,Sequence,shrunken log2 fold change
1,RRIRWRPPRLPRPRPRPFWTPRP,0.0519
2,RRIRWRPPRLPRPRPRPFYAPRP,-0.174
3,RRIRWRPPRLPRPRPRPGAQPRP,0.655
4,RRIRWRPPRLPRPRPRPGATPRP,1.02
5,RRIRWRPPRLPRPRPRPGCVPRP,0.607
6,RRIRWRPPRLPRPRPRPGDAPRP,0.418
7,RRIRWRPPRLPRPRPRPGDKPRP,-0.00136
8,RRIRWRPPRLPRPRPRPGFVPRP,0.291
9,RRIRWRPPRLPRPRPRPGGHPRP,0.494
10,RRIRWRPPRLPRPRPRPGHMPRP,-0.0823
11,RRIRWRPPRLPRPRPRPGKDPRP,-0.222
12,RRIRWRPPRLPRPRPRPGKMPRP,0.0641
13,RRIRWRPPRLPRPRPRPGKNPRP,0.13
14,RRIRWRPPRLPRPRPRPGLEPRP,1.46
15,RRIRWRPPRLPRPRPRPGLTPRP,0.0693
16,RRIRWRPPRLPRPRPRPGLVPRP,0.449
17,RRIRWRPPRLPRPRPRPGNIPRP,-0.472
18,RRIRWRPPRLPRPRPRPGQFPRP,0.061
19,RRIRWRPPRLPRPRPRPGSNPRP,0.227
20,RRIRWRPPRLPRPRPRPGVNPRP,0.0981
21,RRIRWRPPRLPRPRPRPGWNPRP,0.238
22,RRIRWRPPRLPRPRPRPGWVPRP,0.224

row,Sequence,shrunken log2 fold change
1,RRIRWRPPRLPRPRPRPGWYPRP,-0.0191
2,RRIRWRPPRLPRPRPRPGYRPRP,0.0673
3,RRIRWRPPRLPRPRPRPGYYPRP,-0.125
4,RRIRWRPPRLPRPRPRPHAQPRP,0.0298
5,RRIRWRPPRLPRPRPRPHCAPRP,-0.0143
6,RRIRWRPPRLPRPRPRPHDLPRP,-0.0525
7,RRIRWRPPRLPRPRPRPHERPRP,0.156
8,RRIRWRPPRLPRPRPRPHFKPRP,-0.179
9,RRIRWRPPRLPRPRPRPHGMPRP,0.0365
10,RRIRWRPPRLPRPRPRPHGQPRP,-0.0861
11,RRIRWRPPRLPRPRPRPHIVPRP,-0.102
12,RRIRWRPPRLPRPRPRPHIYPRP,-0.358
13,RRIRWRPPRLPRPRPRPHLMPRP,-0.0519
14,RRIRWRPPRLPRPRPRPHMFPRP,-0.0668
15,RRIRWRPPRLPRPRPRPHPHPRP,-0.0616
16,RRIRWRPPRLPRPRPRPHSEPRP,-0.162
17,RRIRWRPPRLPRPRPRPHTSPRP,-0.672
18,RRIRWRPPRLPRPRPRPHYSPRP,-0.279
19,RRIRWRPPRLPRPRPRPHYTPRP,-0.638
20,RRIRWRPPRLPRPRPRPICKPRP,-0.0506
21,RRIRWRPPRLPRPRPRPICLPRP,0.0313
22,RRIRWRPPRLPRPRPRPIDSPRP,-0.0713

row,Sequence,shrunken log2 fold change
1,RRIRWRPPRLPRPRPRPIEFPRP,-0.0119
2,RRIRWRPPRLPRPRPRPIGIPRP,-0.0434
3,RRIRWRPPRLPRPRPRPIGNPRP,0.137
4,RRIRWRPPRLPRPRPRPIHFPRP,-0.357
5,RRIRWRPPRLPRPRPRPIIGPRP,0.0626
6,RRIRWRPPRLPRPRPRPILMPRP,-0.286
7,RRIRWRPPRLPRPRPRPINMPRP,-0.328
8,RRIRWRPPRLPRPRPRPINTPRP,-0.494
9,RRIRWRPPRLPRPRPRPIPFPRP,-0.102
10,RRIRWRPPRLPRPRPRPIRFPRP,-0.0926
11,RRIRWRPPRLPRPRPRPIRRPRP,-0.00924
12,RRIRWRPPRLPRPRPRPITDPRP,-0.15
13,RRIRWRPPRLPRPRPRPITYPRP,-0.828
14,RRIRWRPPRLPRPRPRPIVYPRP,-0.0137
15,RRIRWRPPRLPRPRPRPIWQPRP,-0.0567
16,RRIRWRPPRLPRPRPRPIWVPRP,-0.0257
17,RRIRWRPPRLPRPRPRPIYRPRP,0.0155
18,RRIRWRPPRLPRPRPRPKAQPRP,0.0185
19,RRIRWRPPRLPRPRPRPKCHPRP,0.206
20,RRIRWRPPRLPRPRPRPKDCPRP,-0.0724
21,RRIRWRPPRLPRPRPRPKDMPRP,-0.0331
22,RRIRWRPPRLPRPRPRPKDPPRP,-0.0777

row,Sequence,shrunken log2 fold change
1,RRIRWRPPRLPRPRPRPKFRPRP,0.077
2,RRIRWRPPRLPRPRPRPKGKPRP,-0.00191
3,RRIRWRPPRLPRPRPRPKGSPRP,0.0359
4,RRIRWRPPRLPRPRPRPKHDPRP,0.0868
5,RRIRWRPPRLPRPRPRPKHGPRP,0.186
6,RRIRWRPPRLPRPRPRPKIKPRP,-0.0556
7,RRIRWRPPRLPRPRPRPKLDPRP,0.206
8,RRIRWRPPRLPRPRPRPKMGPRP,0.0381
9,RRIRWRPPRLPRPRPRPKMRPRP,1.25
10,RRIRWRPPRLPRPRPRPKNMPRP,-0.189
11,RRIRWRPPRLPRPRPRPKRHPRP,0.467
12,RRIRWRPPRLPRPRPRPKRMPRP,0.217
13,RRIRWRPPRLPRPRPRPKRQPRP,0.167
14,RRIRWRPPRLPRPRPRPKRVPRP,0.383
15,RRIRWRPPRLPRPRPRPKTAPRP,0.203
16,RRIRWRPPRLPRPRPRPKTKPRP,0.101
17,RRIRWRPPRLPRPRPRPKVYPRP,-0.0533
18,RRIRWRPPRLPRPRPRPKYSPRP,-0.654
19,RRIRWRPPRLPRPRPRPLAMPRP,0.0898
20,RRIRWRPPRLPRPRPRPLCPPRP,0.0748
21,RRIRWRPPRLPRPRPRPLEAPRP,0.668
